Test results: article PMC11992677

Tests used:
[1] = tested on: METTL3 (METTL3/14 complex);METTL14 (METTL3/14 complex); assay: MST; conditions: MST and nanoDSF: 20 mM Tris pH 7.5, 50 uM ZnCl2, 1% glycerol, 1 mM DTT (MST 100 nM probe; nanoDSF 1 uM protein, 20-80 C). EMSA: 40 mM KCl, 20 mM Tris pH 7.6, 1.
[2] = tested on: METTL3 (METTL3/14 complex);METTL14 (METTL3/14 complex); assay: thermal shift (nanoDSF); conditions: MST and nanoDSF: 20 mM Tris pH 7.5, 50 uM ZnCl2, 1% glycerol, 1 mM DTT (MST 100 nM probe; nanoDSF 1 uM protein, 20-80 C). EMSA: 40 mM KCl, 20 mM Tris pH 7.6, 1.
[3] = tested on: MacroH2A.1.1 (with H2B);H2B (with MacroH2A.1.1) (;); assay: MST; conditions: poly(ADP-ribose) polymer, no base sequence; MST and nanoDSF: 20 mM Tris pH 7.5, 50 uM ZnCl2, 1% glycerol, 1 mM DTT (MST 100 nM probe; nanoDSF 1 uM protein, 20-80 C). EMSA: 40 mM KCl, 20 mM Tris pH 7.6, 1.
[4] = tested on: MacroH2A.1.1 (with H2B);H2B (with MacroH2A.1.1) (;); assay: thermal shift (nanoDSF); conditions: 50 uM ZnCl2; dose-dependent; poly(ADP-ribose) polymer, no base sequence; MST and nanoDSF: 20 mM Tris pH 7.5, 50 uM ZnCl2, 1% glycerol, 1 mM DTT (MST 100 nM probe; nanoDSF 1 uM protein, 20-80 C). EMSA: 40 mM KCl, 20 mM Tris pH 7.6, 1.

DRACH RNA probe (4 tandem repeats of DRACH motif)
Kd [1]: 700 nM
binding signal [2]: 1 C (delta Tm)

PAR (poly-(ADP-ribose))
Kd ([1]; poly(ADP-ribose) polymer, no base sequence): 1100 nM
Kd [3]: 500 nM
binding signal (C (delta Tm, maximum)) ([2]; 50 uM ZnCl2, concentration-dependent, poly(ADP-ribose) polymer, no base sequence): > 2
binding signal (C (delta Tm, maximum)) [4]: 3
